# Data published in patent US20250276075A1, “METHODS OF TREATING AXL-EXPRESSING CANCERS WITH ANTI-AXL ANTIBODIES, ANTIBODY FRAGMENTS AND THEIR IMMUNOCONJUGATES” (BIOATLA, INC., priority 2020, published 2025).
# Substitutions are numbered along the chain they refer to. Names may count otherwise.
# T1: Axl (Homo sapiens, UniProt P30530)
# T1 sequence (P30530 26-451 limits assumed): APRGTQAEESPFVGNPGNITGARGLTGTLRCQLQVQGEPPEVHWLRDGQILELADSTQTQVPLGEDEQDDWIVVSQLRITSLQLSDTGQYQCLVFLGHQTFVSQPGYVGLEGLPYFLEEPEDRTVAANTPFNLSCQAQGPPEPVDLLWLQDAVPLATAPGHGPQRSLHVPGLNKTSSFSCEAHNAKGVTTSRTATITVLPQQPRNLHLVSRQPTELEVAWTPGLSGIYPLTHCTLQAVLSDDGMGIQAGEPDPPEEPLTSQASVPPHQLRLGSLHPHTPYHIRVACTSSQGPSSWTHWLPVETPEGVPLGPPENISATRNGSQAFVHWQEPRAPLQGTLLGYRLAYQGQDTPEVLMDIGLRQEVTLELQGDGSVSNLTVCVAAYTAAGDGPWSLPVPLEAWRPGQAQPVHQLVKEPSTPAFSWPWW
# B1: LC-L096G (antibody, V domains shown)
# VH: EVQLVQSGAEVKKPGATVKISCKVSGYSFTGHTMNWIRQPPGKGLEWIGLIKPSNGGTSYNQKFKGRVTISADKSISTAYLQWSSLKASDTAMYYCAHGHYESYFAMDYWGQGTLVTVSS
# VL: DIQMTQSPSSLSASVGDRVTITCKASQDVSSAVAWYQQKPGQAPRLLIYWASTRHTGVPSRFSGSGSGTEFTLTISSLQPDDFATYYCQEHFSTPGTFGQGTKVEIK
# B2: HC-S103M (antibody, V domains shown)
# VH: B1 VH with S103M
# VL: B1 VL with G96L
# B3: LC-T097I (antibody, V domains shown)
# VH: B1 VH
# VL: B1 VL with G96L, T97I
# B4: HC-H100P (antibody, V domains shown)
# VH: B1 VH with H100P
# VL: B1 VL with G96L
# B5: HC-H100R (antibody, V domains shown)
# VH: B1 VH with H100R
# VL: B1 VL with G96L
# B6: HC-E102V (antibody, V domains shown)
# VH: B1 VH with E102V
# VL: B1 VL with G96L
# B7: LC-P095V (antibody, V domains shown)
# VH: B1 VH
# VL: B1 VL with P95V, G96L
# B8: LC-P095T (antibody, V domains shown)
# VH: B1 VH
# VL: B1 VL with P95T, G96L
# B9: HC-S103Q (antibody, V domains shown)
# VH: B1 VH with S103Q
# VL: B1 VL with G96L
# B10: HC-Y101N (antibody, V domains shown)
# VH: B1 VH with Y101N
# VL: B1 VL with G96L
# B11: LC-L096R (antibody, V domains shown)
# VH: B1 VH
# VL: B1 VL with G96R
# B12: HC-E102Y (antibody, V domains shown)
# VH: B1 VH with E102Y
# VL: B1 VL with G96L
# B13: HC-E102L (antibody, V domains shown)
# VH: B1 VH with E102L
# VL: B1 VL with G96L
# B14: HC-H100W (antibody, V domains shown)
# VH: B1 VH with H100W
# VL: B1 VL with G96L
# B15: HC-S103N (antibody, V domains shown)
# VH: B1 VH with S103N
# VL: B1 VL with G96L
# B16: HC-S059T (antibody, V domains shown)
# VH: B1 VH with S59T
# VL: B1 VL with G96L
# B17: HC-H100E (antibody, V domains shown)
# VH: B1 VH with H100E
# VL: B1 VL with G96L
# B18: LC-P095W (antibody, V domains shown)
# VH: B1 VH
# VL: B1 VL with P95W, G96L
# B19: HC-S103D (antibody, V domains shown)
# VH: B1 VH with S103D
# VL: B1 VL with G96L
# B20: HC-Y104C (antibody, V domains shown)
# VH: B1 VH with Y104C
# VL: B1 VL with G96L
# B21: HC-H100D (antibody, V domains shown)
# VH: B1 VH with H100D
# VL: B1 VL with G96L
# Target: Axl (UniProt P30530)
# Assay: ELISA, 1:3 dilution
# Conditions: not given
row,Molecule,"Affinity ELISA CPE mutant ratio (1:3, pH 6.0/7.4)"
1,B1,2.17
2,B2,1.78
3,B3,3.09
4,B4,2.58
5,B5,1.88
6,B6,1.93
7,B7,1.87
8,B8,2.5
9,B9,0.912
10,B10,2.17
11,B11,2.88
12,B12,2.61
13,B13,3.27
14,B14,4.94
15,B15,1.07
16,B16,1.02
17,B17,2.77
18,B18,2.15
19,B19,4.24
20,B20,1.84
21,B21,2.42

# Target: Axl (UniProt P30530)
# Assay: ELISA, 1:9 dilution
# Conditions: not given
row,Molecule,"Affinity ELISA CPE mutant ratio (1:9, pH 6.0/7.4)"
1,B1,2.44
2,B2,1.81
3,B3,4.05
4,B4,1.18
5,B5,2.51
6,B6,2.51
7,B7,2.13
8,B8,2.09
9,B9,2.26
10,B10,2.91
11,B11,2.18
12,B12,1.99
13,B13,2.7
14,B14,5.91
15,B15,3.18
16,B16,1.93
17,B17,3.62
18,B18,2.26
19,B19,2.23
20,B20,1.74
21,B21,3.09

# Target: T1, Axl
# Assay: Affinity ELISA of CPE mutant antibodies for binding to Axl at pH 6.0 over pH 7.4
# Conditions: heavy chain variable region mutants; 1:3 dilution
# Text: The DNA encoding the wild-type antibody was evolved to generate a mutant antibody library using Comprehensive Positional Evolution (CPE), which each position in the template antibody is randomized one at a time. Each mutant antibody in the library has only one single point mutation. The mutant antibodies in the library were generated by simultaneously screening for selective binding affinity to Axl at pH 6.0 over pH 7.4 by ELISA. Two mutant antibody dilutions were used: 1:3 and 1:9 dilutions. The mutant antibodies that have at least 1.5 ratio of binding affinity at pH 6.0 to at pH 7.4 under either 1:3 or 1:9 dilution are selected as conditionally active antibodies, with the single point mutations indicated in each of the heavy chain and light chain variable region (Tables 1 and 2).
# A wild-type antibody to Axl was selected as the template antibody (with a heavy chain variable region of 063-hum10F10-HC in FIG. 1A and a light chain variable region of […]). The DNA encoding the wild-type antibody was evolved to generate a mutant antibody library using Comprehensive Positional Evolution (CPE), a method by which each position in the template antibody is randomized one at a time. Each mutant antibody in the library has only one single point mutation. The mutant antibodies in the library were generated by simultaneously screening for selective binding affinity to Axl at pH 6.0 over pH 7.4 as determined by ELISA.
# Simultaneously, the expression level of the mutant antibodies was also optimized for the purpose of higher fields in a manufacturing process. The screening was done in serum using a FLAG tag because there were human antibodies in the serum which might cause false positives for the screening. The screening buffer was a carbonate buffer (Krebs buffer with ringer-standard buffer but different from PBS). […] Some of the selected mutant antibodies (scFv) were represented in FIG. 2 with their higher activity at pH 6.0 than at pH 7.4, while their activity ratios between pH 6.0 to pH 7.4 were at least 11 fold (FIG. 3).
row,Molecule,"Affinity ELISA CPE mutant ratio (1:3, pH 6.0/7.4)"
1,B2,1.784
2,B4,2.575
3,B5,1.877
4,B6,1.931
5,B9,0.912
6,B10,2.174
7,B12,2.610
8,B13,3.266
9,B14,4.937
10,B15,1.075
11,B16,1.021
12,B17,2.775
13,B19,4.237
14,B20,1.845
15,B21,2.416

# Same assay, conditions: heavy chain variable region mutants; 1:9 dilution
row,Molecule,"Affinity ELISA CPE mutant ratio (1:9, pH 6.0/7.4)"
1,B2,1.806
2,B4,1.179
3,B5,2.507
4,B6,2.507
5,B9,2.256
6,B10,2.907
7,B12,1.990
8,B13,2.698
9,B14,5.908
10,B15,3.179
11,B16,1.926
12,B17,3.623
13,B19,2.230
14,B20,1.741
15,B21,3.094

# Same assay, conditions: light chain variable region mutants; 1:3 dilution
row,Molecule,"Affinity ELISA CPE mutant ratio (1:3, pH 6.0/7.4)"
1,B1,2.165
2,B3,3.086
3,B7,1.871
4,B8,2.497
5,B11,2.876
6,B18,2.148

# Same assay, conditions: light chain variable region mutants; 1:9 dilution
row,Molecule,"Affinity ELISA CPE mutant ratio (1:9, pH 6.0/7.4)"
1,B1,2.436
2,B3,4.049
3,B7,2.132
4,B8,2.086
5,B11,2.176
6,B18,2.263
